We go through 3 sequences from patent US20240400614A1, “CLEAVABLE PEPTIDES AND METHODS OF USE THEREOF” (Bright Peak Therapeutics AG, priority 2023, published 2024).

Square brackets hold non-standard residues; d marks the D form. Ends that are not written are not given here. Tyr(3-NO2) = N[C@@H](Cc1ccc(O)c([N+](=O)[O-])c1)C(=O)O; 2Abz = Nc1ccccc1C(=O)O

What all share (type): biochemical
Assay [1] has as its target T1, MMP-9 (Homo sapiens, UniProt P14780).
T1 construct: purchased SIGMA PF024
Nature of the assay: FRET peptide cleavage efficiency with MMP-9 (standard pH 7.5; also pH 6.5).

Assay [2] addresses uPA (Homo sapiens, UniProt P00749). Nature of the assay: FRET peptide cleavage efficiency with uPA.
In assay [3] the target is T2, matriptase (Homo sapiens, UniProt Q9Y5Y6).
T2 construct: purchased R&D Systems 3946-SEB
T2 sequence (Q9Y5Y6 615-855 limits assumed): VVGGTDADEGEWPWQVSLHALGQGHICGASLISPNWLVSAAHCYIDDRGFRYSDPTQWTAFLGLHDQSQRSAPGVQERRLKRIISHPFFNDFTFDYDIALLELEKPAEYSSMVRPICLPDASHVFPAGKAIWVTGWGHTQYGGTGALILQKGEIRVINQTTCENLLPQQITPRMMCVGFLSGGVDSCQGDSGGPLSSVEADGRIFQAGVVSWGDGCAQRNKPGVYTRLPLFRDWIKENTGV
Nature of the assay: FRET peptide cleavage efficiency with matriptase.

In assay [4] the target is T3, MMP-7 (Homo sapiens, UniProt P09237).
T3 construct: purchased SIGMA CC1059
T3 sequence (P09237 95-267): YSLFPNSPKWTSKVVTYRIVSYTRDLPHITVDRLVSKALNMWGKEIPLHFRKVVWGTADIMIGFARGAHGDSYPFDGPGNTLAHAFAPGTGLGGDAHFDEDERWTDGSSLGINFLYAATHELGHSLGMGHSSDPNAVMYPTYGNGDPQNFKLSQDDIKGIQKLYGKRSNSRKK
Kind of assay: FRET peptide cleavage efficiency with MMP-7 (standard pH 7.5; also pH 6.5).

Assay [5] concerns the target T4, MMP-2 (Homo sapiens, UniProt P08253).
T4 construct: purchased SIGMA PF023
T4 sequence (P08253 110-660): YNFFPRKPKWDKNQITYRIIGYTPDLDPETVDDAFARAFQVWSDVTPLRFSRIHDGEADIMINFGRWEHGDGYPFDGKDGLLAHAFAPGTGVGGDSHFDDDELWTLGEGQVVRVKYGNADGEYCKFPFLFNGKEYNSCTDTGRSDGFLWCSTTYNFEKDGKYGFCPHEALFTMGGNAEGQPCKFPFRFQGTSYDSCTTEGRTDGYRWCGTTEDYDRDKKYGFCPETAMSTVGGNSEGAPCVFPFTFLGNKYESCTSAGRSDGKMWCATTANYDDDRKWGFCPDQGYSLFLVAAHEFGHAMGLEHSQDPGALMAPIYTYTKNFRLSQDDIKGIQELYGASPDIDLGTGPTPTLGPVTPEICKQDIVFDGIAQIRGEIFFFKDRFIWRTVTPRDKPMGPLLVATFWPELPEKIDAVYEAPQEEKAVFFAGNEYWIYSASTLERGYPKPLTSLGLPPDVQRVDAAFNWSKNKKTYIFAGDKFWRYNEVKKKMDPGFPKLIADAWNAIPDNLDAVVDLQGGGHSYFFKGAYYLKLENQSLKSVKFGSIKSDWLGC
Kind of assay: FRET peptide cleavage efficiency with MMP-2.

Where [6] appears, read: t = 15 min, 200 uM linker, 1 ug/ml protease, 37° C., buffer A pH 8.5.
The mark [7] stands for this setting: 200 uM linker, 1 ug/ml protease, 37° C., buffer A pH 8.5.
[8] abbreviates: 200 uM linker, 1 ug/ml protease, 37° C., buffer B pH 9.0.
[9] abbreviates: t = 15 min, 200 uM linker, 1 ug/ml protease, 37° C., buffer C pH 7.5.
Setting [10] is: t = 60 min, 200 uM linker, 1 ug/ml protease, 37° C., buffer C pH 7.5.
Setting [11] is: t = 120 min, 200 uM linker, 1 ug/ml protease, 37° C., buffer C pH 7.5.
The mark [12] stands for this setting: t = 15 min, standard conditions (Table 8).
[13] abbreviates: t = 60 min, standard conditions (Table 8).
Setting [14] is: t = 120 min, standard conditions (Table 8).

T1 sequence (P14780 94-707): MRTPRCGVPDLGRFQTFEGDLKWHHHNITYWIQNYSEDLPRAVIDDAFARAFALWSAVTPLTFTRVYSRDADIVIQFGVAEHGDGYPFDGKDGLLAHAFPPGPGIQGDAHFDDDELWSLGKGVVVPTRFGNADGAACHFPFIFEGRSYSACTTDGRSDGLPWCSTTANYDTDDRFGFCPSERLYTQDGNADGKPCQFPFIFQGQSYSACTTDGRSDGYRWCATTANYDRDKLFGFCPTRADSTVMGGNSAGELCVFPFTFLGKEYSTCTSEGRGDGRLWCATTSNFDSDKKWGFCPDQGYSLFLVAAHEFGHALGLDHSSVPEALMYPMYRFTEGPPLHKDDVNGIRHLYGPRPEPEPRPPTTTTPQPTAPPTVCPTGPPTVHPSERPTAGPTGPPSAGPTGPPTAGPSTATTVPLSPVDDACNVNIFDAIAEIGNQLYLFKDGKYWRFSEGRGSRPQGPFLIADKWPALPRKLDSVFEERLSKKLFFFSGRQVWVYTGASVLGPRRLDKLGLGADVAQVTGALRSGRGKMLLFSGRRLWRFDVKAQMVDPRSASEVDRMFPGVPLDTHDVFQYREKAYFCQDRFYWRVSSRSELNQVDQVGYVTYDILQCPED

Consider “RGRRVANPLGLAGSG ([2Abz]RGRRVANPLGLAGSG[Tyr(3-NO2)]-NH2) [LNK050]”, for which, in assay [1] (t = 15 min (Table 9)), the “% cleavage MMP-9 t = 15 min” value is on record as 52%. Further, the “% cleavage MMP-9 t = 60 min” value in assay [1] (t = 60 min (Table 9)) came out at 100%. Moreover, the “% cleavage MMP-9 t = 120 min” value in assay [1] (t = 120 min (Table 9)) is 100%. In assay [2] (setting [6]), the “% cleavage uPA t = 15 min” value was determined as 1%. In assay [2] (setting [7]), the “% cleavage uPA t = 60 min” value worked out at 3%. Further, the “% cleavage uPA t = 120 min” value in assay [2] (setting [7]) came to 6%. The “% cleavage Matriptase t = 15 min” value in assay [3] (setting [8]) was 78%. In addition, in assay [3] (setting [8]), the “% cleavage Matriptase t = 60 min” value worked out at 100%. Moreover, the “% cleavage Matriptase t = 120 min” value in assay [3] (setting [8]) turned out to be 100%. Also, the “% cleavage MMP-7 t = 15 min” value in assay [4] (t = 15 min (Table 9)) was found to be 1%. Further, the “% cleavage MMP-7 t = 60 min” value in assay [4] (t = 60 min (Table 9)) came out at 3%. In addition, the “% cleavage MMP-7 t = 120 min” value in assay [4] (t = 120 min (Table 9)) is given as 6%. The “% cleavage MMP-2 t = 15 min” value in assay [5] (t = 15 min (Table 9)) and in assay [5] (setting [9]) was 54% throughout. Also, the “% cleavage MMP-2 t = 60 min” value in assay [5] (t = 60 min (Table 9)) and in assay [5] (setting [10]) was 100% each time. Moreover, the “% cleavage MMP-2 t = 120 min” value in assay [5] (t = 120 min (Table 9)) and in assay [5] (setting [11]) was 100% in each case.

With “SGRVAPYMLQG ([2Abz]SGRVAPYMLQG[Tyr(3-NO2)]-NH2) [LNK042]”, the “% cleavage MMP-9 t = 15 min” value in assay [1] (t = 15 min (Table 9)) and in assay [1] (setting [12]) was 55% each time. Further, the “% cleavage MMP-9 t = 60 min” value in assay [1] (t = 60 min (Table 9)) and in assay [1] (setting [13]) was 100% throughout. Further, the “% cleavage MMP-9 t = 120 min” value in assay [1] (t = 120 min (Table 9)) and in assay [1] (setting [14]) was 100% throughout. Also, the “% vcleavage uPA t = 15 min” value in assay [2] (setting [12]) was determined as 2%. Moreover, the “% cleavage uPA t = 60 min” value in assay [2] (standard conditions (Table 8)) was 6%. Moreover, the “% cleavage uPA t = 120 min” value in assay [2] (standard conditions (Table 8)) was 13%. In addition, the “% cleavage Matriptase t = 15 min” value in assay [3] (standard conditions (Table 8)) worked out at 28%. Besides, in assay [3] (standard conditions (Table 8)), the “% cleavage Matriptase t = 60 min” value was found to be 80%. Moreover, the “% cleavage Matriptase t = 120 min” value in assay [3] (standard conditions (Table 8)) is listed as 100%. Besides, the “% cleavage MMP-7 t = 15 min” value in assay [4] (t = 15 min (Table 9)) and in assay [4] (setting [12]) was 59% each time. In addition, the “% cleavage MMP-7 t = 60 min” value in assay [4] (t = 60 min (Table 9)) and in assay [4] (setting [13]) was 100% in each case. Moreover, the “% cleavage MMP-7 t = 120 min” value in assay [4] (t = 120 min (Table 9)) and in assay [4] (setting [14]) was 100% in each case. Further, in assay [5] (t = 15 min (Table 9)), the “% cleavage MMP-2 t = 15 min” value is 49%. Besides, the “% cleavage MMP-2 t = 60 min” value in assay [5] (t = 60 min (Table 9)) and in assay [5] (setting [13]) was 91% each time. Besides, the “% cleavage MMP-2 t = 120 min” value in assay [5] (t = 120 min (Table 9)) and in assay [5] (setting [14]) was 100% throughout.

Turning to “RGRRPLGYFGKL ([2Abz]RGRRPLGYFGKL[Tyr(3-NO2)]-NH2) [LNK057]”, in assay [1] (t = 15 min (Table 9)), the “% cleavage MMP-9 t = 15 min” value is 20%. For the same sequence, in assay [1] (t = 60 min (Table 9)), the “% cleavage MMP-9 t = 60 min” value stood at 100%. The “% cleavage MMP-9 t = 120 min” value in assay [1] (t = 120 min (Table 9)) is given as 100%. Also, the “% cleavage uPA t = 15 min” value in assay [2] (setting [6]) is 0%. Further, the “% cleavage uPA t = 60 min” value in assay [2] (setting [7]) amounted to 0%. The “% cleavage uPA t = 120 min” value in assay [2] (setting [7]) was 0%. The “% cleavage Matriptase t = 15 min” value in assay [3] (setting [8]) is reported as 22%. The “% cleavage Matriptase t = 60 min” value in assay [3] (setting [8]) worked out at 78%. Moreover, in assay [3] (setting [8]), the “% cleavage Matriptase t = 120 min” value is reported as 100%. The “% cleavage MMP-7 t = 15 min” value in assay [4] (t = 15 min (Table 9)) came to 0%. Besides, the “% cleavage MMP-7 t = 60 min” value in assay [4] (t = 60 min (Table 9)) was 0%. The “% cleavage MMP-7 t = 120 min” value in assay [4] (t = 120 min (Table 9)) is recorded as 0%. For the same sequence, the “% cleavage MMP-2 t = 15 min” value in assay [5] (t = 15 min (Table 9)) and in assay [5] (setting [9]) was 71% in each case. Also, the “% cleavage MMP-2 t = 60 min” value in assay [5] (t = 60 min (Table 9)) and in assay [5] (setting [10]) was 100% each time. Moreover, the “% cleavage MMP-2 t = 120 min” value in assay [5] (t = 120 min (Table 9)) and in assay [5] (setting [11]) was 100% throughout.
